{"source": "the nanobody polyreactivity screen of Harvey et al. (2022)", "data": [{"experiment": "yeast display, Sf9 membrane polyspecificity reagent, FACS + sequencing; frameworks hold sequencing errors", "outline": "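In a synthetic yeast display library (Saccharomyces cerevisiae BJ5465), nanobody expression was induced with galactose for 36–48 hours. FACS gates were set low and high (top ~1%) using anti-HA fluorescence for expression and streptavidin fluorescence for binding of the Sf9 membrane reagent. Each polyreactivity label is drawn from the gate of origin.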", "values": [{"sequence": "QVQLVESGGGLVEPGGSLRLSFASSGRTYQFYVMGWSRQAPGKERELVASIRSGGSTNYADSVKGRFTISRDNAKNTVYLLMNSLKPEDTALYYCAARVASPYYRYVYWGKGTQVTVSS", "polyreactivity (PSR sort gate)": "low polyreactivity"}, {"sequence": "QVRLVESGGGLVQAGGSLRLSCAASGRIFLYNARGWYRQAPGKERELVAAINLSDVDTYYADSVKGRFTISRDNAKNTVYLQMNSLKPEDTAVYYCAADGIYWSTIGYYWGQGTQVTVSS", "polyreactivity (PSR sort gate)": "low polyreactivity"}, {"sequence": "QVQLVESGGGLVQAGGSLRLSCAASGNTFGYNAMGWYRQAPGKERELVASITWSGGSTYYADSVKGRFTISRDNAKNTVYLQMNSLKPEDTAVYYCNADVRYGRDHWGQGTQVTVSS", "polyreactivity (PSR sort gate)": "low polyreactivity"}, {"sequence": "QVQLVESGGGLVQAGGSLRLSCAASGSTFYPNSMVWYRQAPGKERELVAAISRGTRTKYADSVKGRFTISRDNAKNSVYLQKNSLKPEDTAVYYCAADTGTGLDWGQGTQVTVSS", "polyreactivity (PSR sort gate)": "high polyreactivity"}, {"sequence": "QVQLVESGGGLVQAGGSLRLSCAASGRTFPPYAMGWYRQAPGKERELVAAISRRAGTTYYADSVKGRFTISRDNAKNTVYLQMNSLKPEDTAVYYCAALTESSSYGYWGQGTQVTVSS", "polyreactivity (PSR sort gate)": "low polyreactivity"}, {"sequence": "HVQPQESGGGLVQAGGSLRLSCAASGTISADYKMGWYRQAPGKEREFVAANAFGAFTNYADSVKGRFTISRDIAKNTVYLQMNSLKPEDTAVYYCAADLYYYAYDYWGQGTQVTVSS", "polyreactivity (PSR sort gate)": "high polyreactivity"}, {"sequence": "QDQLVESGGGLVQAGGSLRLSCAASGSTFGVNAMGWYRQAPGKERELVAIITSTTYSDSVKGRFTISRDNAKNTVYLQMNSLKPEDTAVYYSAADSLLVLFDYWGQGTQVTVSS", "polyreactivity (PSR sort gate)": "low polyreactivity"}, {"sequence": "QVQLVESGGGLVQAGGSLRLSCAASGSTFWGYTMGWYRQAPGKERELVAAITGSGGSTNYADSVKGRFTISRDNANNTVYLQMNSLKPEDTAVYYCATQGITPSNSYDYWGQGTQVTVSS", "polyreactivity (PSR sort gate)": "low polyreactivity"}, {"sequence": "QVQLVESGGGLVQAGGSLRLSCAASGSTFVKYAMGWYRQAPGKERELVAVISSAGSTNYADSVKGRFTISRDNAKNTVYLQMNSLKPEDTAVYYCNAEPTTPYWDYWAYEDDYWGQGTQVTVSS", "polyreactivity (PSR sort gate)": "low polyreactivity"}, {"sequence": "QVQLVESGGGLVQAGGSLRLSCAASGYTFYDYAMGWYRQAPGKERELVARINGGGGTNYADSVKGRFTISRDNAKNTVYLQMNSLKPEDTAVYYCAADVYFRQGDVDLLRYDYWGQGTQVTVSS", "polyreactivity (PSR sort gate)": "low polyreactivity"}, {"sequence": "QVQLVESGGGLVQAGGSLRLSCAASGSTYVSNAMGWYRQAPGKERELVAAISTSGGTTYYADSVKGRFTISRDNAKNTVYLQMNSLKPEDTAVYYCAADYKAYGRSYDYWGQGTQVTVSS", "polyreactivity (PSR sort gate)": "low polyreactivity"}, {"sequence": "QVQLVESGGGLVQAGGSHRLSCAASGSTLSVNAMGWYRQAPGKERELGAAIDFDGGDTYYADSVKGRFTLSRDNAKNTVYLQMNSLKPEDTAVYSCNAALRWKYDWVQGTQVTVSS", "polyreactivity (PSR sort gate)": "low polyreactivity"}, {"sequence": "QVQLVESGGGLVQAGGSLRLSCAASGRIFTVYAMGWYRQAPGKERELVAAISSSGGSTYYADSLKGRFTISRDNAKNSVFLQMNSLKPEDTAVYYCAKPRTYDKDKYDYWGQCTQVTVSS", "polyreactivity (PSR sort gate)": "high polyreactivity"}, {"sequence": "HVQLVESGGRLVQAGGSLRLSCAASGIIFGYYAMGWYRQAPGNERELVAAIDWTGGNTYYADSVKGRFRISRDIAKNTVYLQMNSLKPEDTAVYYCAADYYSQEDYWGQGTQVTVSS", "polyreactivity (PSR sort gate)": "low polyreactivity"}, {"sequence": "QVQLVESGGGLVQAGGSLRLSCAASGIIFWYYAMGWYRQAPGKERELVAAISSGGSTTYADSVKGRFTISRDNAKNTVYLQMNSLKPEDTAVYYCAAVWLSLFKVWVDTHEYDYWGQGTQVTVSS", "polyreactivity (PSR sort gate)": "low polyreactivity"}, {"sequence": "QVQLVESGGGLVQAGGSLRLSCAASGFIFSSYAMAWYRQAPGKERDLVAAISKSGDRTSYADSVKGRFTISRDNAKNTVYLQMNSLKPEDTAVYYCAKDRLYRTKKYRDMYYWGQGTQVSVSS", "polyreactivity (PSR sort gate)": "high polyreactivity"}, {"sequence": "QVQLVESGGGLVQAGGSLRLICAASGRIINGYAMVWYRQAPGKERELVAANSVSGGSTYYADSVKGRFTISRDNAKNTVYLQMNSMKPEDTAVYYCNARIGSRSYAWISTRYDYWGQGNQVTVSS", "polyreactivity (PSR sort gate)": "high polyreactivity"}, {"sequence": "QVQLVESGGGLVQAGVSLRLSCAASGSTFYYYAMGWYRQAPGKERELVATISSGSSTNYADSVKGRFTISRDNAKNTVYLQMNSLKPEDTAVYYCAADRWYITLSIDATISYDYWGQGTQVTVSS", "polyreactivity (PSR sort gate)": "low polyreactivity"}, {"sequence": "QVQLVESGGGLVQAGGSLRLSCAASGSTFQYYAMGWYSQAPGKERELVAAISYGGSRTYYADSVKGRFTISRDNAKNTVYLQMNSLKPEDTAVYYCAKEKYRALAPYYYWGQGTQVTVSS", "polyreactivity (PSR sort gate)": "high polyreactivity"}, {"sequence": "QVQLVESGGGLVQAGASLRLSCAASGIIFPRYAMGWSRQAPGKERDLVAAISYSGGSTYYADSVKGRFTISRDNAKNTVYLQMNSLKPEDPAVYYCAAKWGWKVGYSYYYWGQGTQVTVSS", "polyreactivity (PSR sort gate)": "high polyreactivity"}, {"sequence": "QVQLVDSGGGLVQAGGSLRLSCAASGSIFHVNAMGWYRQAPGKERELVAAIRSDASTNYADSVKGRFTISRDNAKNTVYLQMNILKPEDTAVYYCNTAQLVSDEFDYSGQGTQVTVSS", "polyreactivity (PSR sort gate)": "low polyreactivity"}, {"sequence": "QVQLVESGGGLVQAGGSLRLSCAASGSIIRWNAMGWYRQAPGKERELVAAISYSGGSTYYADSVKGRFTISRDNAKNTVYLQMNSLKPEDTAVYYCAKEYIVGFYLVFNRFDYWGQGTQVTVSS", "polyreactivity (PSR sort gate)": "low polyreactivity"}, {"sequence": "QVHLVESGGGLVQAGASLRLSCAASGRIFYKYAMGWYRQAPGKERELVAAISYRGGSTYYADSVKGRFTISRDNAKNSVYLQMKSLKPEDNAVYYCAADRWYYSVSTKSDSWGQGTQVTVSS", "polyreactivity (PSR sort gate)": "high polyreactivity"}, {"sequence": "QVQLVESGGGLVQAGGSLRLSCAASGITFYYYAMGWYRQAPGKERELVAAISFRGGSTYYADSVKGRFTISRDNAKNTVYLQMNSLKPEDTAVYYCAAETSPSWYTWVTYDYWGQGTKVTVSS", "polyreactivity (PSR sort gate)": "high polyreactivity"}, {"sequence": "QVQLVESGGGLVQAGGSLRLSCAASGRIFSRNTMGWYRQAPGKERELVATISWSGSRTYYADSVKGRFTISRDNAKNTVYLQMNSLKPEDTAVYYCAARLWPSYLSYGKTGDYWGQGTQVTVSS", "polyreactivity (PSR sort gate)": "high polyreactivity"}, {"sequence": "QVQLVESGGGLVQAGGSLLLSCAASGSTSQPYAMGWYRQAPGKERELVASITNGGITYYADSVKGRFTISRDNAKNTVYLQLNSLKPEVTAVYYCNADNVFEGYDRRSARACYRYYYWGQGTQVTVSS", "polyreactivity (PSR sort gate)": "low polyreactivity"}, {"sequence": "QVQLVESGGGKVQAGGSLRLSCAPSGSIFFSYAMGWYRQAPGKERELVAAISGSGTSTYYADSVKGRFTISRDNAKNTVYLQMNSLKPEDTAVYYCPTDGGAAWGRYYWDYGYWGQGTQVTVSS", "polyreactivity (PSR sort gate)": "low polyreactivity"}, {"sequence": "QVQLVESGGGLVQAGGSLRISCAASGFIFKVYAMGWYRQAPGKERELVAAITSSGGSTYYADSVKGRFTISRDNAKNTVYLQMNSLIPEDTAVYYCAAQFPGVYYYIYDYWGQGTQVTVSS", "polyreactivity (PSR sort gate)": "high polyreactivity"}, {"sequence": "QVQLVESGGGLVQAGGSLRLSCAASGRIFRLYAMGWYRQAPGKERELVATITSGGTYYADSVKGRFTISRDNAKNTVYLQMNSLKPEDTAVYYCTARRRLRYDYWGQGTQVTVSS", "polyreactivity (PSR sort gate)": "low polyreactivity"}, {"sequence": "QVQLVESGGGLVQAGGSLRLSCAASGFTIYNNAMGWYRQAPGKERELVAGITSGGDSTNYADSVKGRFTISRDNAKNTVYLQMNRLKPEDTAVYYCAAEGGTNTPGVVESDYWGQGTQVTVSS", "polyreactivity (PSR sort gate)": "low polyreactivity"}, {"sequence": "QVQLVESGGGLVQAGGSLRLSCAASGSIFSYYAMGWYRQAPGKERELVAAISWSGTSTYYADSVKGRFTISRDNAKNTVYLQMNSLKPEDTAVYYCNAGDNPIFDLGQGTQVTVSS", "polyreactivity (PSR sort gate)": "high polyreactivity"}, {"sequence": "QVQLVESGGGLVQAGGSLRLSCAASGLTFGGNAMGWYRQAPGKERELVAAISSGGSTNYADSVKGRFTISRDNAKNTVYLQMNSLKPEDTAVYYCAARDRPGNYFTVYGYWGQGTQVTVSS", "polyreactivity (PSR sort gate)": "low polyreactivity"}, {"sequence": "QVQIVESVGGLVQAGGSLRLSCAASGSTFWFTDMGWYRQAPGKERELVAVITWTGGSTSYADSVKGRFTISRDNAKNTDYLQMKCLNAEDTADYYCDTPVKFGGVPYRYGYWGQGTEVTVSS", "polyreactivity (PSR sort gate)": "low polyreactivity"}, {"sequence": "QVQLVESGGGLVQAGGSLRIICAASGRTFSYYAMGWYRQAPGKERELVAVITSSGGSTSYADSVKGRFTISRDNAKNTVYLQMKSLKPEDTAVYYCAADPLAVSWAYYLFGVDYWGHGTQVTVSS", "polyreactivity (PSR sort gate)": "high polyreactivity"}, {"sequence": "QVQLVESGGGLVQAGGSLRLSCAASGRIYGVYALGWYRQAPGKERELVAAITSSGGSTYYADSVKGRFTISRDNAKNTVYLQMNSLKPEDTAVYYCAADNTFRDDYFLYYLFNYNYWGQGTQVTVSS", "polyreactivity (PSR sort gate)": "low polyreactivity"}, {"sequence": "QVHLVESGGGLVQAGGSLRLSCAASGSISLNAMGWYTQAPGKERELDAGISNDDGTNYADSVKGRFTISRDNAKNPVYLQMNSLKPEDTAVYYCNAERDFVEDYWTYLRYDYWGQGTQVTVSS", "polyreactivity (PSR sort gate)": "low polyreactivity"}, {"sequence": "QVQLVESGGGLVQAGGSLRLSCAASGRIFYWYAMGWYRKAPGKERELVAAIIWSGGSSYYADSVKGRFTISRDNAKNTVYLQMNSLKPEDTAVYYSAADRILEMGYWGQGTQVTVSS", "polyreactivity (PSR sort gate)": "low polyreactivity"}, {"sequence": "QVQLVESVGGLDQAGGSLRLSCAASGSTFSLYTIGWYRQAPGKERELVASISRGGGSTYYADSVKGRFTISRDNAKNTVYLQMNSLKPEDTAVYYCASGTLYFYSHNPEDDFDYWGQGTQVTVSS", "polyreactivity (PSR sort gate)": "high polyreactivity"}, {"sequence": "QVQIVESGGGLVQAGGSLRLSCAASGSTFFRYAMGWYRQAPGKERELVAAISYSGDSTYYADSVKGRFTISRDNAKNTVYLQMNSLKPEDTAVFYCNAVYFRYRYNYWGQGTQVTVSS", "polyreactivity (PSR sort gate)": "high polyreactivity"}, {"sequence": "QVQLVESGGGLVQAGGSLRLSCAASGFTLGPYMGWYRQAPGKERELVAAISGGGGRTYYADSVKGRFTISRDNAKNTVYLQMNSLKPEDTSVYYCAAAYRSYKQFYSYGYEYWGQGTQVTVSS", "polyreactivity (PSR sort gate)": "high polyreactivity"}, {"sequence": "QVQLVESGGGLVQAGGSLRLSCAASGFTFSKYAMGWYRQAPGKERELVASIDDGGSTNYADSVKGRFTISRDNAKNTVYLQKNSLKPEDTAVYYCNASYPTGYWYYVIVQYDYWGQGTQVTVSS", "polyreactivity (PSR sort gate)": "low polyreactivity"}, {"sequence": "QVQLVESGGRLVQAGGSLRVSCAASGSIFRIYSMGWYRQAPGKERELVATISSTGSTYYADSVKGRFTISRDNAKNSVYLQLNSQKPEDTAVYYCAALWKVSSRYWRMDYWGQGTQVTVSS", "polyreactivity (PSR sort gate)": "high polyreactivity"}, {"sequence": "QDQHVESGGGLVQAGGSLRLSCAASGLTFHRYAMGWSRQAPGKERELVAAINYSGGRTYYADSVKGRFTISRDNAKNTVYLLMNSLKPEDTAVYYCAGYDYWGQGTQVTVSS", "polyreactivity (PSR sort gate)": "high polyreactivity"}]}]}
